Source: patent publication US20100092974A1, “METHODS FOR SCREENING FOR MODULATORS OF CCRL2” (The Board of Trustees of the Leland Stanford Junior …, priority 2008, published 2010)

Legend:
[1] = biological target: T1, CCRL2 (Mus musculus, UniProt O35457); test: radiolabeled chemerin binding to TNFα-treated bEND3 cells; settings: cells treated 24 hours with 20 ng/ml TNFα
T1 construct: TNFα-treated bEND3 cells acquire CCRL2 surface protein (but not CMKLR1 expression); endogenous in cells; host or cells: bEND3 mouse brain endothelioma cells treated 24 h with 20 ng/ml TNFα
T1 sequence (O35457 1-360): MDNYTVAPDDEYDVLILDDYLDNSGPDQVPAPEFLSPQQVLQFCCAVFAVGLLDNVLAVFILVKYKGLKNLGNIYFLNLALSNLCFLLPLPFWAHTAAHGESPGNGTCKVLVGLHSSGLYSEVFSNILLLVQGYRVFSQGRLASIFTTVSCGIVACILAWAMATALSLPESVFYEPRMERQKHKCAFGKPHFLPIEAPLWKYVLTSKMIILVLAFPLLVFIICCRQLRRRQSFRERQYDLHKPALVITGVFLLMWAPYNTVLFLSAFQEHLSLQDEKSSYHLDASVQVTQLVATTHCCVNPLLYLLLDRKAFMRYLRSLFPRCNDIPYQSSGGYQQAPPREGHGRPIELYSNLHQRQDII
Description: FIG. 22. […] Panel A. Robust upregulation of CCRL2 RNA by microarray analysis (Affymetrix®). Panel B. TNFα-treated bEND3 cells acquire CCRL2 surface protein (but not CMKLR1 expression) as determined by mAb staining and flow cytometry. Panel C. […] CCRL2/L1.2 and empty vector pcDNA3/L1.2 transfectants are shown as controls. The mean+/−SD of triplicate wells is shown for an individual experiment. A representative data set of 2 performed with similar results is shown for parts B and C, and n=1 for part A.
The cells were washed in PBS and stained with secondary anti-rat IgG PE or anti-mouse IgE PE (+goat IgG) for 30 min on ice, washed with PBS, stained with directly conjugated F4/80 and c-kit mAbs, and analyzed by flow cytometry. […] For competition binding assays, L1.2 cells transfected with huCCRL2, mCCRL2, or mCMKLR1 were plated into 96-well plates at 0.5×10^6 cells/well. […]. For saturation binding assays, mCCRL2/L1.2 cells were plated at 0.5×10^6 cells/well. […] Binding was terminated by washing the cells in saline buffer, and bound radioactivity was measured. Data were analyzed using Prism (GraphPad Software). Binding data (triplicate or quadruplicate wells) were fitted to one-site binding hyperbola for saturation assays, or to a one-site competition curve for competition assays. […] […].

[2] = system: mouse peritoneal mast cells; test: intracellular calcium mobilization, freshly isolated peritoneal mast cells; format: cell-based; settings: 1000 nM chemerin, 100 nM ATP
Description: (§1) Chemoattractant-stimulated Ca^2+-mobilization was performed following Alliance for Cell Signaling protocol ID PP00000210. Cells (3×10^6/mL) were loaded with 4 μM Fluo4-AM and 0.16% Pluronic acid F-127 (Molecular Probes) in modified Iscove's medium (Iscove's medium with 1% heat inactivated bovine calf serum and 2 mM L-glutamine, Invitrogen) for 30 minutes at 37° C. The samples were mixed every 10 minutes during loading, washed once, resuspended at up to 2×10^6/mL in the same buffer, and allowed to rest in the dark for 30 minutes at room temperature. Chemoattractant-stimulated change in Ca^2+-sensitive fluorescence of Fluo-4 was measured over real-time with a FACsScan flow cytometer and CellQuest software (BD Biosciences) at room temperature under constant stirring (500 rpm). Fluorescent data were acquired continuously up to 1024 seconds at 1-second intervals. The samples were analyzed for 45 seconds to establish basal state, removed from the nozzle to add the stimuli, and then returned to the nozzle. Mean channel fluorescence over time was analyzed with FlowJo (TreeStar, Ashland, Oreg., USA) software. […] 500 μl of these chemerin-loaded cells were added to mCMKLR1/L1.2 cells loaded with Fluo4-AM, and calcium mobilization was evaluated.

[3] = biological target: T2, mCMKLR1 (Mus musculus, UniProt P97468); test: in vitro transwell chemotaxis, mCMKLR1-HA/L1.2 cells; format: cell-based; settings: range of doses
T2 construct: expressed in transfected cells; host or cells: L1.2 mouse pre-B lymphoma cells
T2 sequence (P97468 1-371): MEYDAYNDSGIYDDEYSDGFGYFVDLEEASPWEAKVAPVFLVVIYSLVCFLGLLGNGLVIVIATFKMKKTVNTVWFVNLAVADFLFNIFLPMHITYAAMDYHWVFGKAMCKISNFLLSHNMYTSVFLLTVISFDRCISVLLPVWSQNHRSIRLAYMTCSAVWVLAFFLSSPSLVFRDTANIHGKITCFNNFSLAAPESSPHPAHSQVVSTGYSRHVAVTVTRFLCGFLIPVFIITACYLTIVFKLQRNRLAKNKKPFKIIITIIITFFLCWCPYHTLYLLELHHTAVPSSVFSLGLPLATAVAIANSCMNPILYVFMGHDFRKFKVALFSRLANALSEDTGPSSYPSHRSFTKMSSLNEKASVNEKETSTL
Description: For migration experiments using cell lines, 2.5×10^5 cells/100 μl chemotaxis media (RPMI+10% fetal calf serum) were added to the top wells of 5-um pore transwell inserts (Costar, Corning, N.Y., USA), and test samples in 600 μl media were added to the bottom wells. After incubating the transwell plates for 1.5 hours at 37° C., the bottom wells were harvested and flow cytometry was used to assess migration. For primary cell chemotaxis, 1×10^6 cells/100 μl were added to the top well, and, following a 2 hour incubation at 37° C., polystyrene beads (15.0 μm diameter, Polysciences, Warrington, Pa., USA) were added to each well to facilitate normalization of the cell count. The cells were then stained for c-kit, F4/80, and/or CD11b expression and analyzed by flow cytometry. A ratio was generated and percent input migration was calculated.

[4] = biological target: T2, mCMKLR1; test: intracellular calcium mobilization, mCMKLR1 L1.2 transfectants; format: cell-based; settings: Fluo-4
Description: as §1

## chemerin: protein ligand for signaling receptor CMKLR1; serum form human chemerin expressed in baculovirus-infected insect cells, His8-tag removed
[1]
  chemerin binding to TNFα-treated bEND3 cells: bind
[2]
  intracellular calcium mobilization: did not trigger
[3]
  transwell migration: robust, dose dependent migratory response
[4]
  intracellular calcium mobilization: robust calcium flux
